Test results as given in patent US20200207857A1.
Positions count from the first letter of the chain named.

B1: 8C12 (antibody, V domains shown)
VH: EVQLQQSGGGLVQPGGSRKLSCAASGFTFSDYGMAWVRQAPGKGPEWVAFISNLAYSIYSTDTVTGRFTISRENAKNTLYLEMSSLRSDDTAMYYCARGSYYGNSFDYWGQGTTLTVSS
VL: DIVLTQSPAIMSASPGEKVTMTCSASSSVSYMYWYQQKPGSSPKPWIYDTSNLASGFPARFSGSGSGTSYSLIISNMEAEDAATYYCHQRSSYPTFGTGTKLELK
B2: 14D7 (antibody, V domains shown)
VH: VQLQQSGGGLVQPGGSRKLSCAASGFTFSSFGMHWVRQAPEKGLEWVGYINSGSSTIYYADTVKGRFTISRDNPRNTLFLQMTSLRSEDTAMYYCASGAYYGNAMDYWGQGTSVTVSS
VL: MTQDELSLTVTAGEKVTMSCKSSQSLLNSGNQRNYLTWYQQKPGQPPKLLIYWASTRESGVPNRFTGSGSGTDFTLTISSVQAVDLAVYYCQNNYFYPLTFGSGTKLELK
B3: 5G7 (antibody, V domains shown)
VH: KVQLQESGPELVRPGTSVKVSCKASKYAFTNYLIEWIKQRPGQGLEWIGMINPGSDGSHYNEKFKGKATLTADKSSSTAYMQLSSLTSDDSAVYFCARVGYGNSFAYWGQGTLVTVSA
VL: B2 VL with M18L, P43K, N63D, F65L, S80G, V84E, N94A, F96Y, L99F, L109I
B4: 1D5 (antibody, V domains shown)
VH: VQLQESGAELVRPGTSVKVSCKASRYAFTNYLIEWVKQRPGQGLEWIGMINPGSGGTHYNEKFKVKATLTADKSSSTAYMQLNSLTSDDSAVYFCARGGFGNSFAYWGQGTLVTVSA
VL: DIMMTQTPLSLTVTAGEKVTMSCKSSQSLLNGGNLKNYLTWYQQKPGQPPKLLTYWASTRESGVPARFTGSGSGTDFTLTISSVQAEDLAVYYCQNGYFYPYTFGGGTKLEIK
B5: 7A10 (antibody, V domains shown)
VH: B4 VH with R25G, H58N, V65G, N83S
VL: B4 VL with T7S, G32S, E61D, G97D
B6: 4G3 (antibody, V domains shown)
VH: KVQLQQSGGGLVQPGGSRKLSCAASGFTFSSFGMHWVRQAPEKGLEWVGYINSGSSTIYYADTVKGRFTISRDNPRNTLFLQMTSLRSEDTAMYYCASGAYYGNAMDYWGQGTSVTVSS
VL: DIVMTQDELSLTVTVGDKVTMNCRSSQSLLNSGNQRNYLTWYQQKPGQPPKLLIYWASTRESGVPDRFTGSGSGTDFTLTISSVQAEDLAVYYCQNVYFYPLTFGTGTKLELK
B7: 14B7 (antibody, V domains shown)
VH: KVKLQESGPELVKPGASVKIPCKASGYTFTDYKMDWVKQSHGKSLEWIGDINPNNGGTIYNQKFKGKATLTVDRSSSTAYMELRSLTSEDTAVYYCARSYYGNSLAYWGQGTLVTVSA
VL: B6 VL with V15A, D17E, N22S, R24K, R36K, Q48L, V97N, F99I, T106A
B8: 5H7 (antibody, V domains shown)
VH: EVKLQESGPSLVKPFQSLSLTCTVTDYSITRGYNWHWIRQFPGNKLEWMGYIHYSGSTNYNPSLKSRISITRDTSKNQFFLQLNSVTTEDTATYYCARDYYGNSFAYWGQGTLVTVFC
VL: DIVMTQDELSLTVTAREKVTMSCKSSQTLFNSGNQKNYLTWYQQKPGQPPKLLIYWASTRESGVPDRFTGSGSGTDFTLTISSVQAEDLAVYYCQNDYIFPYTFGGGTKLEIK
B9: h5C9a (antibody, V domains shown)
VH: EVQLVESGGGLVQPGGSLRLSCAASGYTFTNYGMNWVRQAPGKGLEWVAWINMYTGEPTYADDFKGRFTISRDDSKNTLYLQMNSLRAEDTAVYYCARLYNGNSLDYWGQGTLVTVSS
VL: DIQMTQSPSSLSASVGDRVTITCKSSQSLLNSGNQKSYLTWYQQKPGKAPKLLIYWASTLESGVPSRFSGSGSGTDFTLTISSLQPEDFATYYCQNAYSFPFTFGQGTKVEIK
B10: h5C9oar (antibody, V domains shown)
VH: EVQLVESGGGLVQPGGSLRLSCAVSGYTFSMNWVRQAPGKGLEWVAWINMYTGEPNYADDFKGRFTISRDDSKNTLYLQMNSLRAEDTAVYYCARLYNGNSLDYWGQGTLVTVSS
VL: B9 VL with S32W, E61W, F77Y
B11: h5C9oy (antibody, V domains shown)
VH: B10 VH with N56T, L96S, Y97S, N98K, S101G
VL: B9 VL with F77Y
B12: h5C9oap (antibody, V domains shown)
VH: B10 VH with P55R, N56T
VL: B9 VL with S32W, E61Q, F77Y
B13: h5C9n (antibody, V domains shown)
VH: B9 VH with A24V
VL: B9 VL
B14: h5C9ow (antibody, V domains shown)
VH: B10 VH with N56T, Y97T, N98K, S101G, L102M
VL: B9 VL with F77Y
B15: h5C9oq (antibody, V domains shown)
VH: B10 VH with N56T, N98R, S101V, L102M
VL: B9 VL with F77Y
B16: h5C9oaa (antibody, V domains shown)
VH: B10 VH with N56T, Y97V, N98R, S101G, L102M
VL: B9 VL with F77Y
B17: h5C9os (antibody, V domains shown)
VH: B10 VH with N56T, L96T, Y97G, N98T, S101T, L102M
VL: B9 VL with F77Y
B18: h5C9om (antibody, V domains shown)
VH: B10 VH with N56T, Y97A, N98R, S101G, L102F
VL: B9 VL with F77Y
B19: h5C9ou (antibody, V domains shown)
VH: B10 VH with N56T, Y97S, N98K, S101G, L102M
VL: B9 VL with F77Y
B20: h5C9ok (antibody, V domains shown)
VH: B10 VH with N56T, Y97T, N98R
VL: B9 VL with F77Y
B21: h5C9on (antibody, V domains shown)
VH: B10 VH with N56T, L96T, Y97A, N98P, S101G, L102F
VL: B9 VL with F77Y
B22: h5C9oz (antibody, V domains shown)
VH: B10 VH with N56T, Y97S, N98R
VL: B9 VL with F77Y
B23: h5C9ot (antibody, V domains shown)
VH: B10 VH with N56T, L96S, Y97S, N98M, S101G, L102F
VL: B9 VL with F77Y
B24: h5C9oaq (antibody, V domains shown)
VH: B10 VH with P55Q, N56T
VL: B9 VL with S32W, E61F, F77Y
B25: h5C9ov (antibody, V domains shown)
VH: B10 VH with N56T, Y97V, N98K, S101G, L102F
VL: B9 VL with F77Y
B26: h5C9or (antibody, V domains shown)
VH: B10 VH with N56T, Y97N, N98R, L102M
VL: B9 VL with F77Y
B27: h5C9oo (antibody, V domains shown)
VH: B10 VH with N56T, Y97V, N98R, S101G, L102F
VL: B9 VL with F77Y
B28: h5C9ol (antibody, V domains shown)
VH: B10 VH with N56T, Y97G, N98P, S101V, L102F
VL: B9 VL with F77Y
B29: h5C9ox (antibody, V domains shown)
VH: B10 VH with N56T, L96A, Y97S, N98R, S101G, L102M
VL: B9 VL with F77Y
B30: h5C9op (antibody, V domains shown)
VH: B10 VH with N56T, L96T, Y97S, N98R, S101G, L102M
VL: B9 VL with F77Y
B31: h5C9oa (antibody, V domains shown)
VH: B10 VH with N56T
VL: B9 VL with F77Y, S99A
B32: h5C9oe (antibody, V domains shown)
VH: B10 VH with N56T
VL: B9 VL with F77Y, S99R
B33: h5C9od (antibody, V domains shown)
VH: B10 VH with N56T
VL: B9 VL with F77Y, S99W
B34: h5C9of (antibody, V domains shown)
VH: B10 VH with N56T
VL: B9 VL with F77Y, A97S
B35: h5C9og (antibody, V domains shown)
VH: B10 VH with N56T, N98R
VL: B9 VL with F77Y, A97S
B36: h5C9oc (antibody, V domains shown)
VH: B10 VH with N56T
VL: B9 VL with F77Y, A97G

biological target: Recombinant protein Claudin 18.2; test: ELISA on plate-coated recombinant Claudin 18.2, OD370; Kd table under the graph, no unit in the table, unit from the x axis log[antibody] nM
Sequence (chain, as listed by the source limits assumed, form in doubt): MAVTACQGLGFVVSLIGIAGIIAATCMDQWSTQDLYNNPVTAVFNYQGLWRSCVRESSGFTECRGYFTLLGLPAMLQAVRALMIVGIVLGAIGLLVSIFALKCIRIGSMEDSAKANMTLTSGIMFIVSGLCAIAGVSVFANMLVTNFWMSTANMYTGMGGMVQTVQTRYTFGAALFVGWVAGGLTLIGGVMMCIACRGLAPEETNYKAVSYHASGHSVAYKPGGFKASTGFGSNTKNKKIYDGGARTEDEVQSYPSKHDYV

**Q.** B1 was tested. Which Kd did it give?
**A.** The Kd was 78.2 pM.

**Q.** For B2, which Kd is on record?
**A.** The Kd was 100 pM.

**Q.** Which Kd does the source give for B3 here?
**A.** The Kd was 293 pM.

**Q.** Which Kd does the source give for B4 here?
**A.** The Kd was 55 pM.

**Q.** With B5 as the binder, how does the Kd read?
**A.** Its Kd is 104 pM.

**Q.** For B6, which Kd is on record?
**A.** Its Kd is 343 pM.

**Q.** B7 was tested. Which Kd did it give?
**A.** Its Kd is 200 pM.

**Q.** How did the Kd turn out when B8 was run?
**A.** Its Kd is 136 pM.

biological target: Recombinant protein Claudin 18.2; test: ELISA on plate-coated recombinant Claudin 18.2, OD450; Kd table under the graph, no unit in the table, unit from the x axis log[antibody] nM

**Q.** B9 was tested. Which Kd did it give?
**A.** The Kd was 278 pM.

**Q.** With B10 as the binder, how does the Kd read?
**A.** Its Kd is 149 pM.

**Q.** Which Kd does the source give for B11 here?
**A.** Its Kd is 103 pM.

**Q.** Which Kd does the source give for B12 here?
**A.** Its Kd is 189 pM.

**Q.** For B13, which Kd is on record?
**A.** The Kd was 323 pM.

**Q.** B14 was tested. Which Kd did it give?
**A.** Its Kd is 88.2 pM.

**Q.** Which Kd does the source give for B15 here?
**A.** Its Kd is 107 pM.

**Q.** How did the Kd turn out when B16 was run?
**A.** Its Kd is 81.5 pM.

**Q.** With B17 as the binder, how does the Kd read?
**A.** Its Kd is 134 pM.

**Q.** Which Kd does the source give for B18 here?
**A.** The Kd was 100 pM.

**Q.** How did the Kd turn out when B19 was run?
**A.** The Kd was 91.9 pM.

**Q.** With B20 as the binder, how does the Kd read?
**A.** Its Kd is 108 pM.

**Q.** Which Kd does the source give for B21 here?
**A.** The Kd was 131 pM.

**Q.** Which Kd does the source give for B22 here?
**A.** Its Kd is 77.8 pM.

**Q.** B23 was tested. Which Kd did it give?
**A.** The Kd was 98.7 pM.

**Q.** How did the Kd turn out when B24 was run?
**A.** The Kd was 203 pM.

**Q.** With B25 as the binder, how does the Kd read?
**A.** Its Kd is 107 pM.

**Q.** Which Kd does the source give for B26 here?
**A.** Its Kd is 71.5 pM.

**Q.** How did the Kd turn out when B27 was run?
**A.** Its Kd is 122 pM.

**Q.** For B28, which Kd is on record?
**A.** The Kd was 119 pM.

**Q.** B29 was tested. Which Kd did it give?
**A.** The Kd was 79 pM.

**Q.** With B30 as the binder, how does the Kd read?
**A.** The Kd was 109 pM.

biological target: Recombinant protein Claudin 18.2; test: as above; remark: another data set of the same source

**Q.** For B31, which Kd is on record?
**A.** Its Kd is 89.4 pM.

**Q.** B32 was tested. Which Kd did it give?
**A.** Its Kd is 87.8 pM.

**Q.** How did the Kd turn out when B33 was run?
**A.** Its Kd is 87.6 pM.

**Q.** With B34 as the binder, how does the Kd read?
**A.** Its Kd is 103 pM.

**Q.** For B35, which Kd is on record?
**A.** Its Kd is 88.4 pM.

**Q.** With B36 as the binder, how does the Kd read?
**A.** Its Kd is 84.8 pM.
